Measurements: article PMC11053023 (Nature Communications, 2024)

Legend:
[1] = molecular target: T1, FEM1B-EB-EC ternary complex (human, UniProt Q9UK73 1-627; Q15370 1-118; Q15369 17-112); experiment: ITC; peptides (0.5-1 mM) titrated into 50 μM protein in the cell, 25 °C; 20 mM Tris, 200 mM NaCl, pH 7.5, 1 mM EDTA; one-site binding model; conditions: both partners purified
T1 construct: FEM1B, human, full-length (FEM1B^FL); elongin B (EB, ELOB), human; elongin C (EC, ELOC), human; written as one protomer; also called FEM1B-elongin B-elongin C; FEM1B-ELOB-ELOC; source: E. coli BL21(DE3), co-expressed, purified (Ni-NTA, SEC); copies: + +

[2] = molecular target: T2, FEM1B-EB-EC ternary complex with FEM1B D356A/V391A/Q394A/F501A/H502A (human, UniProt Q9UK73 1-627; Q15370 1-118; Q15369 17-112, D356A | V391A | Q394A | F501A | H502A); experiment: ITC; SUMO fusion peptides (0.5-1 mM) titrated into 50 μM FEM1B-EB-EC in the cell, 25 °C, 20 mM Tris, 200 mM NaCl, pH 7.5, 1 mM EDTA; one-site binding model; conditions: both partners purified
T2 construct: FEM1B, human, full length, quintuple mutant of the aromatic (psi) pocket; elongin B (EB, ELOB), human; elongin C (EC, ELOC), human; also called 5A mutant; FEM1BFL-EB-EC D356A/V391A/Q394A/F501A/H502A; source: E. coli BL21(DE3), purified in the same way as the WT protein; copies: + +

Kd [1] [µM] | stoichiometry N [2] | Kd [2] [µM] | Binder
> 500 | – | – | KAADHLHKFHENDNGAAAGDLWQ [CUX1 C-degron F-22A, SUMO fusion]
> 50 | – | – | KKHSLDLLLRHLSP [CCDC89 C-degron variant with deletion of nine residues in the linker region]
– | 0.46 | – | KKRLLLGLDR (CDK5R1, human, C-terminal 10 residues; also called CDK5R1 10-mer; 10-aa CDK5R1 C-degron; source: E. coli BL21(DE3), purified (Ni-NTA; SEC for ITC); not shown: SUMO with (GGGS)2 linker, N-terminal, kept) [SUMO-(GGGS)2-CDK5R1 298-307 WT]
– | 0.16 | 5.7 ± 0.8 | VFSDLKNESGQEDKKRLLLGLDR (CDK5R1, human, C-terminal 23 residues; also called CDK5R1 23-mer; 23-aa CDK5R1 C-degron; source: E. coli BL21(DE3), purified (Ni-NTA; SEC for ITC); not shown: SUMO with (GGGS)2 linker, N-terminal, kept) [SUMO-(GGGS)2-CDK5R1 285-307 WT]
